B3: BMP2/6 heterodimer (ligand)
chain 1: QAKHKQRKRLKSSCKRHPLYVDFSDVGWNDWIVAPPGYHAFYCHGECPFPLADHLNSTNHAIVQTLVNSVNSKIPKACCVPTELSAISMLYLDENEKVVLKNYQDMVVEGCGCR
chain 2: SASSRRRQQSRNRSTQSQDVARVSSASDYNSSELKTACRKHELYVSFQDLGWQDWIIAPKGYAANYCDGECSFPLNAHMNATNHAIVQTLVHLMNPEYVPKPCCAPTKLNAISVLYFDDNSNVILKKYRNMVVRACGCH
notes: bone morphogenetic protein 2 chain of the BMP2/6 heterodimer; bone morphogenetic protein 6 chain of the BMP2/6 heterodimer; also called heterodimer of BMP2/6; source: bought: RND Systems #7145-BP-010/CF; copies: 1 + 1
B4: BMP6 homodimer (ligand, UniProt P22004 375-513, looked up)
chain: SASSRRRQQSRNRSTQSQDVARVSSASDYNSSELKTACRKHELYVSFQDLGWQDWIIAPKGYAANYCDGECSFPLNAHMNATNHAIVQTLVHLMNPEYVPKPCCAPTKLNAISVLYFDDNSNVILKKYRNMVVRACGCH
notes: bone morphogenetic protein 6; source: bought: RND Systems 507-BP-020/CF
B5: BMP2 homodimer (ligand, UniProt P12643 283-396, looked up)
chain: QAKHKQRKRLKSSCKRHPLYVDFSDVGWNDWIVAPPGYHAFYCHGECPFPLADHLNSTNHAIVQTLVNSVNSKIPKACCVPTELSAISMLYLDENEKVVLKNYQDMVVEGCGCR
notes: bone morphogenetic protein 2; source: bought: RND Systems #355-BM-010/CF

Experiment [1] addresses B3. Put plainly: SPR; scan of overlapping synthetic 18-mer peptides of the ERFE N terminus over BMP2/6, BMP2 or BMP6; 180 s injection, then buffer wash. The settings on record: both partners purified.
The target of experiment [2] is B5. The description is as above. The note with it: both partners purified.
In experiment [3] the target is B4. Described as above. The note with it: both partners purified.
The target of experiment [4] is T1, Full-length ERFE (erythroferrone), 43-354, FLAG-tagged (human, UniProt Q4G0M1 43-354).
T1 construct: human erythroferrone (ERFE), mature molecule, residues 43-354; pcDNA3.1(+) backbone; Predominantly a hexamer at low concentration on native PAGE, a smear of 117-460 kDa at high concentration; also called Full length, 43-354; WT, 43-354; source: HEK293T, transiently transfected, in supernatant; not shown: FLAG, N-terminal, kept
Put plainly: SPR; Biacore T200, CM5 chip; BMP2, BMP6 or BMP2/6 immobilised by amine coupling (50 μg/ml); FLAG-ERFE variants made in HEK293T as analyte; HBS-EP (0.15 M NaCl, 3 mM EDTA, 0.005% P20, 0.01 M Hepes pH 7.4), 50 μl/min; KD = koff/kon at five concentrations; the paper calls the constants avidities where binding is presumed multivalent. The settings on record: one partner purified. (In SPR one partner is held on a chip, and binding of the other changes the refractive index at the surface.)

In experiment [5] the target is T1, Full-length ERFE (erythroferrone), …. Described as above. The note with it: one partner purified. This is another data set of the same source.
The target of experiment [6] is B3. Put plainly: SPR; Biacore T200, CM5 chip; BMP2, BMP6 or BMP2/6 immobilised by amine coupling (50 μg/ml); purified bacterial untagged ERFE N-terminal variants or synthetic 53-mer segments as analyte; HBS-EP pH 7.4, 50 μl/min; KD = koff/kon at five concentrations. The note with it: both partners purified.
In experiment [7] the target is B5. The experiment is described as above. The settings on record: both partners purified.
Experiment [8] concerns the target B4. The description is as above. The settings on record: both partners purified.
Experiment [9] deals with B3. Described as above. The settings on record: both partners purified. The source holds these as a separate data set.
Experiment [10] concerns the target B5. The description is as above. The settings on record: both partners purified. The source holds these as a separate data set.
For experiment [11], the target named is B4. The description is as above. The settings on record: both partners purified. The source holds these as a separate data set.

The term Kd denotes the free concentration of one partner at which half of the binding sites on the other are occupied at equilibrium, for simple one-to-one binding. A high value points to weaker binding. A word on the koff: it is the rate constant with which the complex falls apart. A lower koff goes with slow dissociation.

B1: ERFE 18-mer peptide 121-138 (peptide, UniProt Q4G0M1 121-138, looked up)
peptide: GPPGPIIPPEALLKEFQL
notes: human erythroferrone (ERFE), residues 121-138; source: synthetic peptide (GenScript, ≥70% purity)
Take B1: the binding result with BMP2/6 heterodimer [1], in the experiment with BMP2 homodimer [2] and with BMP6 homodimer [3] was “binds” in each case.

B2: ERFE 18-mer peptide 133-150 (peptide, UniProt Q4G0M1 133-150, looked up)
peptide: LKEFQLLLKGAVRQRERA
notes: human erythroferrone (ERFE), residues 133-150; source: synthetic peptide (GenScript, ≥70% purity)
For the molecule B2, the binding result in the experiment with BMP2/6 heterodimer [1], in the experiment with BMP2 homodimer [2] and with BMP6 homodimer [3] was “binds” throughout.

With B3, binding in [4] was put at a Kd of 0.277 nM. Besides, in [5], the koff was determined as 0.00022 s⁻¹.

In experiment [4], B4 displayed a Kd of 0.817 nM. In addition, the koff in experiment [5] was determined as 0.00022 s⁻¹.

B5: the Kd in [4] was determined as 0.445 nM. This molecule also showed an off-rate constant (koff) in experiment [5] of 9e-05 s⁻¹.

B6: ERFE N terminus ΔCollagen, 43-148 del109-125 (bacterial) (domain or fragment, human, UniProt Q4G0M1 43-148, looked up)
chain: EPPPGNELPRGPGESRAGPAARPPEPTAERAHSVDPRDAWMLFVRQSDKGVNGKKRSRGKAKKLKFIIPPEALLKEFQLLLKGAVRQRE
notes: also called bacterial ΔCollagen N terminus; source: E. coli Rosetta2(DE3)pLysS, purified (Ni-NTA, TEV cleavage, reverse IMAC); not shown: His6, N-terminal, cleaved; MBP, N-terminal, cleaved
Take B6: the Kd turned out to be 50.1 nM with BMP2/6 heterodimer [6], 3.13 nM with BMP2 homodimer [7] and 0.756 nM in the experiment with BMP6 homodimer [8]. In addition, the “pKd (-log Kd)” value with BMP2/6 heterodimer [6] was 7.3; in the experiment with BMP2 homodimer [7] it was 8.7; in the experiment with BMP6 homodimer [8], 9.2. Moreover, the values for the koff with BMP2/6 heterodimer [9], in the experiment with BMP2 homodimer [10] and with BMP6 homodimer [11] were 0.0052 s⁻¹, 0.0056 s⁻¹ and 0.0085 s⁻¹, respectively. In addition, the log kd with BMP2/6 heterodimer [9] was -2.29; with BMP2 homodimer [10] it was -2.29; in the experiment with BMP6 homodimer [11] it was -2.17.

B7: ERFE 18-mer peptide 73-90 (peptide, UniProt Q4G0M1 73-90, looked up)
peptide: AHSVDPRDAWMLFVRQSD
notes: human erythroferrone (ERFE), residues 73-90; source: synthetic peptide (GenScript, ≥70% purity)
Regarding B7, the binding result with BMP2/6 heterodimer [1], with BMP2 homodimer [2] and in the experiment with BMP6 homodimer [3] was “binds” each time.

B8: ERFE 18-mer peptide 97-114 (peptide, UniProt Q4G0M1 97-114, looked up)
peptide: KRSRGKAKKLKFGLPGPP
notes: also called cationic 18-mer peptide; source: synthetic peptide (GenScript, ≥70% purity)
Regarding B8, the binding result in the experiment with BMP2/6 heterodimer [1], with BMP2 homodimer [2] and with BMP6 homodimer [3] was “binds” each time.

The record behind these values is article PMC10692919, “Characterization of erythroferrone structural domains relevant to its iron-regulatory function” (The Journal of Biological Chemistry, 2023).
